In PMC10200060, “Inhibition of DAMP actions in the tumoral microenvironment using lactoferrin-glycyrrhizin conjugate for glioblastoma therapy” (Biomaterials Research, 2023):

T1: human recombinant HMGB1 protein (Homo sapiens, UniProt P09429)
T1 construct: purchased Abcam
T1 sequence (P09429 1-215): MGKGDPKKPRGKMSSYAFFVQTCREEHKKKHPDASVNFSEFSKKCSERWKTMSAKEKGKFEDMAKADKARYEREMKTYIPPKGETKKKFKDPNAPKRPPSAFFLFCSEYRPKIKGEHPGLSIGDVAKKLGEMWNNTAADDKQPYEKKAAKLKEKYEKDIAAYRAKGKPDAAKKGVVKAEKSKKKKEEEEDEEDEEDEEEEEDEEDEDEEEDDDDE

B1: lactoferrin (protein, UniProt P02788 20-710, looked up)
Lactotransferrin: GRRRSVQWCAVSQPEATKCFQWQRNMRKVRGPPVSCIKRDSPIQCIQAIAENRADAVTLDGGFIYEAGLAPYKLRPVAAEVYGTERQPRTHYYAVAVVKKGGSFQLNELQGLKSCHTGLRRTAGWNVPIGTLRPFLNWTGPPEPIEAAVARFFSASCVPGADKGQFPNLCRLCAGTGENKCAFSSQEPYFSYSGAFKCLRDGAGDVAFIRESTVFEDLSDEAERDEYELLCPDNTRKPVDKFKDCHLARVPSHAVVARSVNGKEDAIWNLLRQAQEKFGKDKSPKFQLFGSPSGQKDLLFKDSAIGFSRVPPRIDSGLYLGSGYFTAIQNLRKSEEEVAARRARVVWCAVGEQELRKCNQWSGLSEGSVTCSSASTTEDCIALVLKGEADAMSLDGGYVYTAGKCGLVPVLAENYKSQQSSDPDPNCVDRPVEGYLAVAVVRRSDTSLTWNSVKGKKSCHTAVDRTAGWNIPMGLLFNQTGSCKFDEYFSQSCAPGSDPRSNLCALCIGDEQGENKCVPNSNERYYGYTGAFRCLAENAGDVAFVKDVTVLQNTDGNNNEAWAKDLKLADFALLCLDGKRKPVTEARSCHLAMAPNHAVVSRMDKVERLKQVLLHQQAKFGRNGSDCPDKFCLFQSETKNLLFNDNTECLARLHGKTTYEKYLGPQYVAGITNLKKCSTSPLLEACEFLRK
B2: Lf-GL-FITC: FITC-tagged Lf-GL for cellular uptake studies (conjugate, UniProt P02788 20-710, looked up)
Lactotransferrin: B1 Lactotransferrin
modifications: FITC label; GL conjugate
notes: FITC-tagged Lf-GL for cellular uptake studies

What was measured:
[1] = target: T1, human recombinant HMGB1 protein; test: SPR binding affinity against HMGB1; conditions: SPR, HMGB1 immobilized
Procedure: To confirm the binding affinity of Lf-GL to HMGB1, Surface Plasmon Resonance (SPR) was conducted at WoojungBSC (Korea). The Reichert SR7500DC system (Reichert technologies, NA, USA) and Scrubber2 software (Biologic software, FRA) were used, and a CMDH chip (Cat #: 13,206,066, Reichert technologies) was used for immobilization of the human recombinant HMGB1 protein (Abcam). HMGB1 protein was used as a ligand, and the analytes were HMGB1 antibody (Abcam), GL, Lf and Lf-GL conjugate. The immobilization buffer was S.A. (10 × 10^–3 M, pH 4.5), and the running buffer was PBS (pH 7.4). The flow rate of the analyte was 30 μL min^−1. The association and dissociation time were 3 min each, and measurements were conducted at room temperature. Results are expressed in response units (RU) over time.
Fig. S5. Binding affinity against HMGB1. Surface Plasmon Resonance (SPR) was conducted at WoojungBSC (Korea). The Reichert SR7500DC system (Reichert technologies, NA, USA) and Scrubber2 software(Biologic software, FRA) were used and the CMDH chip (Cat #: 13206066, Reichert technologies) was used for immobilization of the human recombinant HMGB1 protein (Abcam). HMGB1 protein was used as ligand and analytes were HMGB1 antibody (Abcam), GL, Lf and Lf-GL conjugate. Immobilization buffer was 10 mM S.A. (pH 4.5) and running buffer was 1× PBS. The flow rate of the analyte was 30 μL min^-1. The association and dissociation time were 3 min each and conducted at room temperature. Results are expressed in response units (RU) over time.

[2] = test system: orthotopic GBM (U87MG) mice model; test: TUNEL assay of GBM tissue; type: in vivo, Balb/c nude mice; conditions: daily i.v., 14 days (control 28.5 ± 4.8)
Source text: (§1) After two weeks, mice were sacrificed, and the brains were harvested and fixed with paraformaldehyde (4%). Then, tissue processing was automatically conducted using a Leica TP1020 semi-enclosed Benchtop Tissue Processor (Leica Biosystems, Wetzlar, Hesse, Germany), followed by embedding in paraffin blocks. Paraffin blocks were sliced into 5 μm thick slices using a Leica RM2145 Microtome (Leica Biosystems). Nissl staining was used to stain brain tissue slides with pre-warmed 0.1% Cresyl Violet Stain Solution (Abcam). TUNEL assays were conducted following the manufacturer’s instructions. For immunofluorescence staining; anti-HMGB1 antibody (Abcam), anti-Ki67 antibody (Abcam), anti-CD31 antibody (Abcam), and anti-VEGF antibody (Abcam) were used as primary antibodies, and goat anti-rabbit IgG-H&L Alexa Fluor 488 and goat anti-rabbit IgG H&L Alexa Fluor 647 were used as secondary antibodies, followed by DAPI mounting.

[3] = test system: U87MG human glioma cell line; test: Cell viability test (CCK-8) in U87MG; type: cell-based; conditions: 50 μM GL equivalent, after 48 h treatment
Procedure: Cell viability was determined using a cell counting kit-8 (CCK-8). U87MG and HUVECs (seeding density: 0.75 × 10^4 cells per well) in 96-well culture plates were treated with GL, Lf, or Lf-GL (25 to 200 × 10^–6 M of GL equivalent concentration) and were incubated for different periods of time (24, 48, and 72 h). After washing with PBS, they were treated with a cell culture medium containing a CCK-8 assay kit (Abbkine) and were incubated at 37 °C and 5% CO2 for 2 h. Then, absorbance was measured at 450 nm in a micro-plate reader (VLBL00D0, Thermo Fisher Scientific). Results were quantified using Sigma Plot (Systat Software, USA). To determine the effect of extracellular HMGB1 in GBM and endothelial cell proliferation, U87MG and HUVECs were seeded in 96-well culture plates (seeding density: 0.75 × 10^4 cells per well) and GL, Lf, or Lf-GL (50 × 10^–6 M GL equivalent concentration) were added to cells with or without HMGB1 protein (U87MG: 0.1 μg mL^−1, and HUVEC: 1 μg mL^−1). Cells were incubated for different periods of time (24, 48, and 72 h).

[4] = test system: orthotopic GBM (U87MG) mice model; test: Survival in orthotopic GBM mouse model; type: in vivo, Balb/c nude mice; conditions: i.v. GL equivalent 50 mg kg^−1 (Lf 5 mg kg^−1)
Procedure: To establish the orthotopic GBM mice model, GBM cells (U87MG, inoculation density: 1.0 × 10^6 cells per 10 μL) were stereotactically injected into the right striatum of Balb/c nude mice. Then, mice were randomly divided into four groups (n = 5): control, GL, Lf, and Lf-GL treated group. […] After four weeks, mice were sacrificed, and organs were harvested and fixed with 4% paraformaldehyde for further analysis.

HMGB1 [5] = test: Immunofluorescence staining of HMGB1 in GBM tissue; type: in vivo, Balb/c nude mice; conditions: GBM mice, daily i.v. GL equivalent 50 mg kg^−1, 14 days (control 15.3 ± 1.7)
Source text: as §1

[6] = test system: orthotopic GBM (U87MG) mice model; test: Nissl staining: GBM/normal brain ratio; type: in vivo, Balb/c nude mice; conditions: daily i.v. GL equivalent 50 mg kg^−1, 14 days (control 37.5 ± 2.3)
Source text: as §1

HUVEC = HUVEC co-cultured with U87MG: CCK-8 at basal chamber; type: cell-based, human; conditions: HUVEC/U87MG Transwell co-culture, 100 μM GL equivalent, 24 h
Procedure: (§2) To evaluate the inhibitory effect of Lf-GL on neovascularization in the tumor microenvironment in vitro, U87MG cells were seeded in the Transwell® insert chambers that were 6.5 mm in diameter and had 0.4 μm pore sizes (seeding density: 2.5 × 10^4 cells per well, Corning). HUVECs were seeded in the Transwell basal chamber (seeding density: 5.0 × 10^4 cells per well). GL, Lf, or Lf-GL (100 × 10^–6 M of GL equivalent concentration) were added to the insert chamber, and cells were incubated for 24 h. CCK-8 assay and HMGB1 ELISA were conducted at the basal chamber.

HMGB1 [7] = test: HMGB1 ELISA of U87MG culture medium; type: cell-based, human; conditions: 50 μM GL equivalent, 48 h (control 131.8 ± 11.4)
Procedure: U87MG cells were seeded in 100 mm-cell culture dishes (2.2 × 10^6 cells per dish) and treated with GL, Lf, or Lf-GL (50 × 10^–6 M GL equivalent concentration) for 48 h. After incubating, cells were collected using a cell scrapper and were centrifuged for 3 min at 150 × g. Supernatant was collected as cell culture medium, and pellets were washed with cold PBS twice and transferred into a microcentrifuge tube. Tubes were centrifuged, and then pellets were resuspended in 500 μL 1X hypotonic buffer and incubated on ice. Then, 25 μL of NP40 was added and the mixture was agitated using a vortex mixer at the highest setting. Homogenates were centrifuged for 10 min at 842 × g at 4℃. Supernatant was collected as the cytoplasmic fraction, and pellets were resuspended in cell extraction buffer (50 μL) and were incubated for 30 min on ice with vortexing at 10 min intervals. Then, homogenates were centrifuged for 30 min at 14,000 × g at 4℃. Supernatant was collected as the nuclear fraction. The amount of HMGB1 in the samples was measured using a HMGB1 ELISA kit (Abbkine), and absorbance was measured at 450 nm in a micro-plate reader. A DNA assay (Quant-iT™ dsDNA Assay Kit, Invitrogen) was also conducted to express HMGB1 concentrations in equivalent amounts of DNA.

HMGB1 [8] = test: HUVEC co-cultured with U87MG: HMGB1 ELISA; type: cell-based, human; conditions: HUVEC/U87MG co-culture, 100 μM GL equivalent, 24 h (control 217.8 ± 5.9)
Procedure: as §2

CD31 = test: Immunofluorescence staining of CD31 in GBM tissue; type: in vivo, Balb/c nude mice; conditions: GBM mice, daily i.v., 14 days (control MFI 14.7 ± 1.4)
Source text: as §1

U87MG cells = test: Cellular uptake of FITC-tagged Lf-GL (flow cytometry); type: cell-based, human; conditions: 2 h incubation, Lf pre-treatment 500 nM
Procedure: To verify cellular uptake of Lf-GL, U87MG cells (seeding density: 2.5 × 10^4 cells per well) in an 8 well Nunc™ Lab-Tek II chambered coverglass (Thermo Scientific) were treated with FITC-tagged Lf-GL (1 × 10^–6 M) for different time periods (0 to 18 h). After washing with PBS, cells were treated with lysotracker (75 × 10^–9 M) and incubated for 2 h. Then, cells were fixed with 4% paraformaldehyde followed by DAPI mounting. Confocal laser scanning microscopy (SP8 X, Leica, Germany) was used to observe intracellular fluorescence, and images were processed using LAS X software (Leica).
Fig. S11. Significant cellular uptake of Lf-GL in U87MG. (a) Flow cytometry to evaluate cellular uptake of FITC tagged-Lf-GL (1 µM) in U87MG for 2,6, and 18 h. The 2 h pre-treatment of Lf and Pitstop® were treated in the concentration of 500 nM and 75 nM, respectively. (b) Quantification of cellular uptake for 18 h. Data were expressed as mean ± S.E.M (n=2).

Molecule	KD, equilibrium dissociation constant (KD = Kd Ka^−1) [1]	Ka, association rate constant ([1]; PBS pH 7.4, room temperature)	TUNEL MFI [2]	Number of cells, % of the original count [3]	Mice survived up to 28 days [4]	Additional days of survival versus PBS control ([4]; 28 days)	Mean fluorescence intensity (MFI) of HMGB1 (HMGB1 [5])	GBM/normal brain ratio [6]	Reduction of endothelial cell proliferation (HUVEC)	HMGB1 released into the medium of U87MG cells (HMGB1 [7])	HMGB1 level in medium (HMGB1 [8])	Decrease of MFI of CD31 (CD31)	Decrease of cellular internalization in the presence of Lf (U87MG cells)
B1	165 ± 3 nM	(8.1±0.1)·10^4 M^-1s^-1	9.4 ± 1.6	69.6 ± 5.7%	25%	5 days	7.9 ± 1.4	29.7 ± 3.3	8.2 ± 2.9%	114 ± 3.4 ng/mL	177.3 ± 3.6 ng/mL	~2 fold	
B2													about 17%
